Data on one substance can be found in PMC8537121.

Test [1] concerns the target Human MAP/Microtubule Affinity Regulating Kinase 4 (MARK4), recombinant, containing both kinase and UBA domains (human) (UniProt Q96L34). The test is described as follows: other fluorescence titration; quenching of the intrinsic fluorescence of MARK4 (emission at 344 nm) by irisin, 0-1 µM; fitted to a modified Stern-Volmer equation.
The target is the same in test [2].
The target is the same in test [3]. The test is described as follows: ITC; VP-ITC; 15 µM MARK4 in the sample cell, 200 µM irisin in the syringe; two-site model. Background: ITC needs no label: the signal is the heat of the interaction.

UniProt Q96L34, sequence (Q96L34 44-370): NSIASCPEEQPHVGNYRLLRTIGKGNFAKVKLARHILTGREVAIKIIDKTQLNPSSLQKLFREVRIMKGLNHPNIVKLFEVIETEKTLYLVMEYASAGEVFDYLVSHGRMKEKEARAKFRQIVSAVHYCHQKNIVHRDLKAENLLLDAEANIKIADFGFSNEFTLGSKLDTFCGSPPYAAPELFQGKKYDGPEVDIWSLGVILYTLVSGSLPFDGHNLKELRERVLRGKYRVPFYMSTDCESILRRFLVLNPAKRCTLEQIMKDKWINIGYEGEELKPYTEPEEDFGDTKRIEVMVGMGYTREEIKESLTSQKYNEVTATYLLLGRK

For Human irisin (natural protein), the Ka in test [1] was found to be 8e+06 M⁻¹. The IC50 of inhibition of MARK4 kinase activity (ATPase assay), irisin 0-15 µM in test [2] is 2710 nM. Also, in test [3], the Ka1 (site 1 of the two-site model) was 2590 M⁻¹, the Ka2 (site 2 of the two-site model) amounted to 1.19e+06 M⁻¹, the dH1 (site 1 of the two-site model) is -1550 kcal/mol and the dH2 (site 2 of the two-site model) was 190 kcal/mol.
